These results are taken from PMC3142182.

The target of the test is HCV NS5A protein, genotype 1b (hepatitis C virus genotype 1b) (UniProt Q9WMX2). Put plainly: co-IP; detergent-solubilized lysates of HEK 293T cells expressing the proteins; immunoprecipitation with mAb against 1b5A, Western blot for NS5B; protocol of Qi et al. [29]; three independent experiments. For orientation: A western blot detects proteins with antibodies after separation by electrophoresis.

Turning to “HCV NS5B (RNA-dependent RNA polymerase), genotype 1b (Con1), full length (from UniProt Q9WMX2 2420-3010) (enzyme)”, the fold more co-precipitated than 1bΔ21 is more than 2 fold.
